Experimental data reported in patent US20230365705A1 (DYNAMICURE BIOTECHNOLOGY, published 2023).

What was measured:
[1] = target: T1, Human CD93 on cells (human CD93 expressing CHO cells; HUVEC, U937 and KG1a cells) (human, UniProt Q9NPY3 22-652); experiment: summary table, column FACS (HUVEC cells); 4 weeks at 40 C
T1 construct: whole, on cells; also called hCD93 expressing CHO cells; hCD93 CHO cells
T1 sequence (looked up): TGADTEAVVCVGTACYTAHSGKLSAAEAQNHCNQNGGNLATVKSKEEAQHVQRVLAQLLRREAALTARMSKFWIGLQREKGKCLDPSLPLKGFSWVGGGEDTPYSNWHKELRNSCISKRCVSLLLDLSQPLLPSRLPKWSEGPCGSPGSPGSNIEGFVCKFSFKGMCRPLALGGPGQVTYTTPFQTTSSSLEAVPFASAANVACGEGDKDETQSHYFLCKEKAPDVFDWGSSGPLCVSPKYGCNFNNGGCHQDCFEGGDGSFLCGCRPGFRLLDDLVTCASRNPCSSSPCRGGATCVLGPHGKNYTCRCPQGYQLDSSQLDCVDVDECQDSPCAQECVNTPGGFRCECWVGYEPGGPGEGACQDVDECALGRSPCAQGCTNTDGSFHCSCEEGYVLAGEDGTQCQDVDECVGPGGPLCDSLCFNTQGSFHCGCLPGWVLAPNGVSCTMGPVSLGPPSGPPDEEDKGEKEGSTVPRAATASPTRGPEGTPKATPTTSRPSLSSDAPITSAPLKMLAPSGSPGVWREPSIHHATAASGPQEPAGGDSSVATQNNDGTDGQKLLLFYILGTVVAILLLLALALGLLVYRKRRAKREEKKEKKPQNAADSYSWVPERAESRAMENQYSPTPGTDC
Protocol: HUVEC cells were detached by incubation with TrypLE reagents (Thermo Fisher), which preserves the integrity of CD93 on the cell surface. Then the cells were incubated with serial diluted anti-CD93 antibodies for 30 minutes at 4° C. After washing by FACS buffer, the cells were incubated with Alexa Fluor 647 conjugated anti-human IgG (Jackson ImmunoResearch) for 30 minutes in 4° C. After washing by FACS buffer twice, the samples were acquired in NovoCyte Flow Cytometer and analyzed by NovoExpress software.

[2] = target: T1, Human CD93 on cells (human CD93 …); experiment: flow cytometry blocking assay, CHO-hCD93 cells; blocked ligand hMMRN2 495-674 at 0.1 ug/ml, APC anti-His
Protocol: (§1) Then the cells were incubated with hMMRN2₄₉₅₋₆₇₄ at 0.1 μg/ml. […] After washing with FACS buffer twice, the samples were analyzed, and data acquired in NovoCyte Flow. Recombinant his tagged hMMRN2₄₉₅₋₆₇₄ was produced internally in E. Coli following routine procedure.

[3] = target: T1, Human CD93 on cells (human CD93 …); experiment: flow cytometry blocking assay, CHO-hCD93 cells; blocked ligand hMMRN2 495-674 at 0.1 ug/ml; antibody stored 4 weeks at 40 C
Protocol: as §1

[4] = target: T1, Human CD93 on cells (human CD93 …); experiment: flow cytometry, CHO-hCD93 cells, APC-A
[5] = target: T2, Human CD93 recombinant protein (Sino Biological Inc, Catalog #12589-H08H) (human, UniProt Q9NPY3 22-580); experiment: BLI (Octet QKe), biotinylated human CD93 on streptavidin biosensors; antibody stored 2 weeks at 40 C
T2 construct: Biotinylated (EZ-LINK NHS-PEG4 biotin) in the BLI assays; also called hCD93; His-tagged human CD93
T2 sequence (looked up): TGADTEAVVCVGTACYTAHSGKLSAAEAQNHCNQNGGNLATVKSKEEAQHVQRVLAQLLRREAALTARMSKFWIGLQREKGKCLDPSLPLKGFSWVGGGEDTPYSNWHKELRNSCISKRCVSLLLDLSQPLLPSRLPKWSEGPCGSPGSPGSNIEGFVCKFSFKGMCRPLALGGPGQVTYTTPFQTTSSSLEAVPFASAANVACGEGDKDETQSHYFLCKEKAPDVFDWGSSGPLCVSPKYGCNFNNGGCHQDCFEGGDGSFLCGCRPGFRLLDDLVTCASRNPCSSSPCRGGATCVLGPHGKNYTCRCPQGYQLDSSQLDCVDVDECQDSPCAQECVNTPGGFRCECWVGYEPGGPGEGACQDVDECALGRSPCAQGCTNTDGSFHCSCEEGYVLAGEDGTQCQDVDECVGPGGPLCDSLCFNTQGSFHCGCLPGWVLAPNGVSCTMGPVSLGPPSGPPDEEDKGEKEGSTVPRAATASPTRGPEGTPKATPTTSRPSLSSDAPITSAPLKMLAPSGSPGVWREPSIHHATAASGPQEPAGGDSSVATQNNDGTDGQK
Protocol: The binding affinity of anti-CD93 antibodies was determined with bio-layer interferometry using Octet QKe (Fortebio). […] Human CD93 recombinant protein (Sino Biological Inc, Catalog #12589-H08H) was biotinylated using EZ-LINK NHS-PEG4 biotin (Thermo Fisher Scientific). Streptavidin biosensors (Fortebio) were used to load biotinylated CD93 protein (300 seconds in 5 μg/ml). Baseline was stabilized for 60 seconds in 1× kinetics buffer (Fortebio) before anti-CD93 antibodies, at a serial dilution, were allowed to associate for 300 seconds with captured protein. Then the sensors were dissociated in 1× kinetics buffer for 600 seconds. […] (FIG. 42).

[6] = target: T1, Human CD93 on cells (human CD93 …); experiment: flow cytometry blocking assay, CHO-hCD93 cells; blocked ligand hMMRN2 495-674 at 0.1 ug/ml; blocking activity is 0 up to about 10 ug/ml and appears only at the two highest points
Protocol: Then the cells were incubated with hMMRN2₄₉₅₋₆₇₄ at 0.1 μg/ml. […] Then the cells were washed with FACS buffer and incubated with APC-conjugated anti-His tag antibody at 1 μg/ml for 30 minutes at 4° C. After washing with FACS buffer twice, the samples were analyzed and data acquired in NovoCyte Flow. Recombinant his tagged […] was produced internally in Expi_HEK following routine procedure.

B1: h7F3 (humanized 7F3, VH3+VL3) (antibody, human IgG1, V domains shown)
VH: QVQLVQSGAEVKKPGASVKVSCKASGYTFTDYEMHWVRQAPGQGLEWMGGIDPETGDTAYNQNFKGRVTMTTDTSTSTAYMELRSLTSDDTAVYYCTNYGNLYYYAMDYWGQGTSVTVSS
VL: EIVLTQSPSSLSASVGDRVTITCRASSSVSSSYLHWYQQKPGKAPKLLIYSTSNLAFGVPSRFSGSGSGTSYTFTISSLQPEDIATYYCQQYSGYPLTFGSGTKLEIK
notes: also called humanized 7F3-hIgG1
EC50 [1]: 1.12 nM | IC50 [2]: 0.173 nM | IC50 [3]: 0.153 nM

B2: 16E4 (hybridoma) (antibody, IgG2a, V domains shown)
VH: QVQLQQPGAELVKPGASVKLSCKASGYTFTSYWMHWVKQRPGQGLEWIGEIDPSASYTYYNQKFKGKATLTVDKSSSTAYMQLSSLTSEDSAVYYCARSVYYGNKYFDVWGAGTTVTVSS
VL: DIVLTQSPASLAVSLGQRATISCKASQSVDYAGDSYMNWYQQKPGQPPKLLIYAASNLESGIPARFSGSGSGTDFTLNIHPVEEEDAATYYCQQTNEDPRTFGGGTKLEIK
notes: also called 16E4 mAb; 16E4 mIgG2a
M3 gate, % of cells [4]: 98.7%

B3: h16E4 (humanized 16E4, VH4+VL6) (antibody, V domains shown)
VH: QVQLVQSGAEVKKPGASVKVSCKASGYTFTSYWMHWVRQAPGQGLEWMGEIDPSASYTYYNQKFKGRVTMTRDKSSSTVYMELSSLTSEDSAVYYCARSVYYGNKYFDVWGAGTTVTVSS
VL: DIQMTQSPSTLSASVGDRVTITCKASQSVDYAGDSYMNWYQQKPGKAPKLLIYAASNLESGVPSRFSGSGSGTEFTLTISSLQPDDFATYYCQQTNEDPRTFGGGTKLEIK
notes: Detected with anti-human IgG, so a human Fc
Kd [5]: 0.0204 nM | koff [5]: 5.08e-06 s⁻¹ | kon [5]: 249000 M⁻¹ s⁻¹ | IC50 [6]: 225 nM
